Results on 5 molecules are retold here after US20140087995A1 (published 2014).

Numbered stars: 1 amine (or outer) side, 2 acyl side, 3 side chain; on linkers, the order of the positions; unused ones are H or OH. Bridge positions count the residues as written; N and C are the ends. Side chains are listed from the residue outwards. Ends that are not written are not given here. * marks the point of attachment. C20 diacid = O=C(O)CCCCCCCCCCCCCCCCCCC(=O)*; γGlu = O=C(O)[C@H](CCC(=O)[*:2])N[*:1]

The IC50 is the concentration that inhibits the measured activity by half. High values mean weaker potency, low ones greater potency.

The target in this assay is T1, human amylin receptor (human, UniProt P30988 25-474; O60896 24-148, limits assumed).
T1 construct: whole, on cells; Used as cell membranes prepared from the Amylin 3(a)/CRE-luc BHK cells (Assay V); also called hAmylin-R; hAmylinR
T1 sequence (looked up) 1: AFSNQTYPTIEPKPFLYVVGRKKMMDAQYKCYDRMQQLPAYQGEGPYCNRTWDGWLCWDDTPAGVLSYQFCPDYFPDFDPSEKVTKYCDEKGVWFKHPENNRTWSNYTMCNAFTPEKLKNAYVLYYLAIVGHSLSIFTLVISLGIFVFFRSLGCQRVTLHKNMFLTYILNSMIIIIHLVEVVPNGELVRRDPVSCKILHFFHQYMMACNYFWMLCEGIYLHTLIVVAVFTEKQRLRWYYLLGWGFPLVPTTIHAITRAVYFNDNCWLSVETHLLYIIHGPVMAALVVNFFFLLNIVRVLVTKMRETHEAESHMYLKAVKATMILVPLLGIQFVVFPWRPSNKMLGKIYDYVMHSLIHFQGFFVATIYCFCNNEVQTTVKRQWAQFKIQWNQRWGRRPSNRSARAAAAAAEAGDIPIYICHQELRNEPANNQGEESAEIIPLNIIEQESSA
T1 sequence (looked up) 2: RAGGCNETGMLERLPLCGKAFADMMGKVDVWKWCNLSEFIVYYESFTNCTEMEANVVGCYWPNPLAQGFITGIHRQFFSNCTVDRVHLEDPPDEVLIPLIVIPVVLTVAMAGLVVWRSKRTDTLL
Briefly: SPA competition vs 125I-rat amylin, membranes of amylin 3(a) receptor BHK cells (Assay V). As to the method: The binding assay was performed using scintillation proximity assay (SPA) beads (RPNQ0001) from PerkinElmer and cell membranes from the Amylin 3(a)/CRE-luc cells (as described in Assay (II)) were used. Membranes were prepared in the following way; the cells were rinsed with PBS and incubated with Versene for approximately 5 min before harvesting. The cells were flushed with PBS and the cell-suspension was centrifuged for 5 min at 1000 rpm. Cells were homogenized (ultrathurrax) in a buffer containing 20 mM Na-HEPES and 10 mM EDTA (pH 7.4) and centrifuged at 20.000 rpm for 15 min. The resulting pellet was resuspended, homogenized and centrifuged (20.000 rpm, 15 min) in a buffer containing 20 mM Na-HEPES and 0.1 mM EDTA (pH 7.4, buffer 2). The resulting pellet was resuspended in buffer 2 and protein concentration was measured (BCA protein Assay, Pierce). The homogenate was kept cold during the whole procedure. The membranes were kept at −80° C. until use. The assay was performed in a 384 well Optiplate (PerkinElmer) in a total volume of 40 ul. Membranes were mixed with SPA beads. Final concentration of membranes 35 ng/μL final and SPA beads was 0.05 mg/well. Test-compounds were dissolved in DMSO and further diluted in assay buffer (50 mM Hepes, pH 7.4, 1 mM CaCl2, 5 mM MgCl₂, 0.1% OA and 0.02% Tween20). […] The final mixture was incubated with shaking at 400 rpm for 120 min at 25° C. prior to centrifugation (1500 rpm, 10 min). Samples were analyzed on TopCounter™ (Packard). The IC₅₀ was calculated using (one site binding competition analysis) GraphPad Prism5 as a measure of receptor affinity.

B1: N^ε1-[(4S)-4-carboxy-4-[[(4S)-4-carboxy-4-(19-carboxynonadecanoylamino)butanoyl]amino]butanoyl]-[Asp14,Arg17,Pro21,Pro27,Asp35]-h-amylin (peptide)
peptide: K([γGlu-γGlu-C20 diacid])CNTATCATQRLADFLRHSSPNFGAIPSSTNVGSDTY-NH2
modifications: disulfide 2-7; N-terminus assumed
SMILES: CC[C@H](C)[C@H](NC(=O)[C@H](C)NC(=O)CNC(=O)[C@H](Cc1ccccc1)NC(=O)[C@H](CC(N)=O)NC(=O)[C@@H]1CCCN1C(=O)[C@H](CO)NC(=O)[C@H](CO)NC(=O)[C@H](Cc1c[nH]cn1)NC(=O)[C@H](CCCNC(=N)N)NC(=O)[C@H](CC(C)C)NC(=O)[C@H](Cc1ccccc1)NC(=O)[C@H](CC(=O)O)NC(=O)[C@H](C)NC(=O)[C@H](CC(C)C)NC(=O)[C@H](CCCNC(=N)N)NC(=O)[C@H](CCC(N)=O)NC(=O)[C@@H](NC(=O)[C@H](C)NC(=O)[C@@H]1CSSC[C@H](NC(=O)[C@@H](N)CCCCNC(=O)CC[C@H](NC(=O)CC[C@H](NC(=O)CCCCCCCCCCCCCCCCCCC(=O)O)C(=O)O)C(=O)O)C(=O)N[C@@H](CC(N)=O)C(=O)N[C@@H]([C@@H](C)O)C(=O)N[C@@H](C)C(=O)N[C@@H]([C@@H](C)O)C(=O)N1)[C@@H](C)O)C(=O)N1CCC[C@H]1C(=O)N[C@@H](CO)C(=O)N[C@@H](CO)C(=O)N[C@H](C(=O)N[C@@H](CC(N)=O)C(=O)N[C@H](C(=O)NCC(=O)N[C@@H](CO)C(=O)N[C@@H](CC(=O)O)C(=O)N[C@H](C(=O)N[C@@H](Cc1ccc(O)cc1)C(N)=O)[C@@H](C)O)C(C)C)[C@@H](C)O
notes: also called compound 2
B1 displayed an IC50 of 0.411 nM.

B2: N{Alpha-1}-[(4S)-4-carboxy-4-(19-carboxynonadecanoylamino)butanoyl]-[Glu14,Arg17,Pro21,Pro27,Lys34]-h-amylin (peptide)
peptide: {C20 diacid-γGlu}-KCNTATCATQRLAEFLRHSSPNFGAIPSSTNVGKNTY-NH2
modifications: disulfide 2-7
SMILES: CC[C@H](C)[C@H](NC(=O)[C@H](C)NC(=O)CNC(=O)[C@H](Cc1ccccc1)NC(=O)[C@H](CC(N)=O)NC(=O)[C@@H]1CCCN1C(=O)[C@H](CO)NC(=O)[C@H](CO)NC(=O)[C@H](Cc1c[nH]cn1)NC(=O)[C@H](CCCNC(=N)N)NC(=O)[C@H](CC(C)C)NC(=O)[C@H](Cc1ccccc1)NC(=O)[C@H](CCC(=O)O)NC(=O)[C@H](C)NC(=O)[C@H](CC(C)C)NC(=O)[C@H](CCCNC(=N)N)NC(=O)[C@H](CCC(N)=O)NC(=O)[C@@H](NC(=O)[C@H](C)NC(=O)[C@@H]1CSSC[C@H](NC(=O)[C@H](CCCCN)NC(=O)CC[C@H](NC(=O)CCCCCCCCCCCCCCCCCCC(=O)O)C(=O)O)C(=O)N[C@@H](CC(N)=O)C(=O)N[C@@H]([C@@H](C)O)C(=O)N[C@@H](C)C(=O)N[C@@H]([C@@H](C)O)C(=O)N1)[C@@H](C)O)C(=O)N1CCC[C@H]1C(=O)N[C@@H](CO)C(=O)N[C@@H](CO)C(=O)N[C@H](C(=O)N[C@@H](CC(N)=O)C(=O)N[C@H](C(=O)NCC(=O)N[C@@H](CCCCN)C(=O)N[C@@H](CC(N)=O)C(=O)N[C@H](C(=O)N[C@@H](Cc1ccc(O)cc1)C(N)=O)[C@@H](C)O)C(C)C)[C@@H](C)O
notes: also called compound 36
In turn, B2 showed an IC50 of 0.403 nM.

B3: N^ε1-[(4S)-4-carboxy-4-[[(4S)-4-carboxy-4-(19-carboxynonadecanoylamino)butanoyl]amino]butanoyl]-[Glu14,Arg17,Pro21,Pro27,His34,Glu35]-h-amylin (peptide)
peptide: K([γGlu-γGlu-C20 diacid])CNTATCATQRLAEFLRHSSPNFGAIPSSTNVGHETY-NH2
modifications: disulfide 2-7; N-terminus assumed
SMILES: CC[C@H](C)[C@H](NC(=O)[C@H](C)NC(=O)CNC(=O)[C@H](Cc1ccccc1)NC(=O)[C@H](CC(N)=O)NC(=O)[C@@H]1CCCN1C(=O)[C@H](CO)NC(=O)[C@H](CO)NC(=O)[C@H](Cc1c[nH]cn1)NC(=O)[C@H](CCCNC(=N)N)NC(=O)[C@H](CC(C)C)NC(=O)[C@H](Cc1ccccc1)NC(=O)[C@H](CCC(=O)O)NC(=O)[C@H](C)NC(=O)[C@H](CC(C)C)NC(=O)[C@H](CCCNC(=N)N)NC(=O)[C@H](CCC(N)=O)NC(=O)[C@@H](NC(=O)[C@H](C)NC(=O)[C@@H]1CSSC[C@H](NC(=O)[C@@H](N)CCCCNC(=O)CC[C@H](NC(=O)CC[C@H](NC(=O)CCCCCCCCCCCCCCCCCCC(=O)O)C(=O)O)C(=O)O)C(=O)N[C@@H](CC(N)=O)C(=O)N[C@@H]([C@@H](C)O)C(=O)N[C@@H](C)C(=O)N[C@@H]([C@@H](C)O)C(=O)N1)[C@@H](C)O)C(=O)N1CCC[C@H]1C(=O)N[C@@H](CO)C(=O)N[C@@H](CO)C(=O)N[C@H](C(=O)N[C@@H](CC(N)=O)C(=O)N[C@H](C(=O)NCC(=O)N[C@@H](Cc1c[nH]cn1)C(=O)N[C@@H](CCC(=O)O)C(=O)N[C@H](C(=O)N[C@@H](Cc1ccc(O)cc1)C(N)=O)[C@@H](C)O)C(C)C)[C@@H](C)O
Take B3: the IC50 came to 0.525 nM.

B4: N^ε1-[(4S)-4-carboxy-4-[[(4S)-4-carboxy-4-(19-carboxynonadecanoylamino)butanoyl]amino]butanoyl]-[Glu14,Arg17,Pro21,Pro27,Pro34,Glu35]-h-amylin (peptide)
peptide: K([γGlu-γGlu-C20 diacid])CNTATCATQRLAEFLRHSSPNFGAIPSSTNVGPETY-NH2
modifications: disulfide 2-7; N-terminus assumed
SMILES: CC[C@H](C)[C@H](NC(=O)[C@H](C)NC(=O)CNC(=O)[C@H](Cc1ccccc1)NC(=O)[C@H](CC(N)=O)NC(=O)[C@@H]1CCCN1C(=O)[C@H](CO)NC(=O)[C@H](CO)NC(=O)[C@H](Cc1c[nH]cn1)NC(=O)[C@H](CCCNC(=N)N)NC(=O)[C@H](CC(C)C)NC(=O)[C@H](Cc1ccccc1)NC(=O)[C@H](CCC(=O)O)NC(=O)[C@H](C)NC(=O)[C@H](CC(C)C)NC(=O)[C@H](CCCNC(=N)N)NC(=O)[C@H](CCC(N)=O)NC(=O)[C@@H](NC(=O)[C@H](C)NC(=O)[C@@H]1CSSC[C@H](NC(=O)[C@@H](N)CCCCNC(=O)CC[C@H](NC(=O)CC[C@H](NC(=O)CCCCCCCCCCCCCCCCCCC(=O)O)C(=O)O)C(=O)O)C(=O)N[C@@H](CC(N)=O)C(=O)N[C@@H]([C@@H](C)O)C(=O)N[C@@H](C)C(=O)N[C@@H]([C@@H](C)O)C(=O)N1)[C@@H](C)O)C(=O)N1CCC[C@H]1C(=O)N[C@@H](CO)C(=O)N[C@@H](CO)C(=O)N[C@H](C(=O)N[C@@H](CC(N)=O)C(=O)N[C@H](C(=O)NCC(=O)N1CCC[C@H]1C(=O)N[C@@H](CCC(=O)O)C(=O)N[C@H](C(=O)N[C@@H](Cc1ccc(O)cc1)C(N)=O)[C@@H](C)O)C(C)C)[C@@H](C)O
Turning to B4, the IC50 was 0.121 nM.

B5: N^ε1-[(4S)-4-carboxy-4-[[(4S)-4-carboxy-4-(19-carboxynonadecanoylamino)butanoyl]amino]butanoyl]-[Glu14,Arg17,Pro21,Pro27,Arg34,Glu35]-h-amylin (peptide)
peptide: K([γGlu-γGlu-C20 diacid])CNTATCATQRLAEFLRHSSPNFGAIPSSTNVGRETY-NH2
modifications: disulfide 2-7; N-terminus assumed
SMILES: CC[C@H](C)[C@H](NC(=O)[C@H](C)NC(=O)CNC(=O)[C@H](Cc1ccccc1)NC(=O)[C@H](CC(N)=O)NC(=O)[C@@H]1CCCN1C(=O)[C@H](CO)NC(=O)[C@H](CO)NC(=O)[C@H](Cc1c[nH]cn1)NC(=O)[C@H](CCCNC(=N)N)NC(=O)[C@H](CC(C)C)NC(=O)[C@H](Cc1ccccc1)NC(=O)[C@H](CCC(=O)O)NC(=O)[C@H](C)NC(=O)[C@H](CC(C)C)NC(=O)[C@H](CCCNC(=N)N)NC(=O)[C@H](CCC(N)=O)NC(=O)[C@@H](NC(=O)[C@H](C)NC(=O)[C@@H]1CSSC[C@H](NC(=O)[C@@H](N)CCCCNC(=O)CC[C@H](NC(=O)CC[C@H](NC(=O)CCCCCCCCCCCCCCCCCCC(=O)O)C(=O)O)C(=O)O)C(=O)N[C@@H](CC(N)=O)C(=O)N[C@@H]([C@@H](C)O)C(=O)N[C@@H](C)C(=O)N[C@@H]([C@@H](C)O)C(=O)N1)[C@@H](C)O)C(=O)N1CCC[C@H]1C(=O)N[C@@H](CO)C(=O)N[C@@H](CO)C(=O)N[C@H](C(=O)N[C@@H](CC(N)=O)C(=O)N[C@H](C(=O)NCC(=O)N[C@@H](CCCNC(=N)N)C(=O)N[C@@H](CCC(=O)O)C(=O)N[C@H](C(=O)N[C@@H](Cc1ccc(O)cc1)C(N)=O)[C@@H](C)O)C(C)C)[C@@H](C)O
B5: the IC50 turned out to be 0.957 nM.
